Data reported in a protein production outcome set (Wang et al. 2014).
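Note: failed if final PepcDB status was selected cloned or expressed and not failed if soluble or beyond.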

Test: label from the status in PepcDB records
For “MGKTRAGRFALRGQRTALLHLETMTQAVDSADSVDPRALEALNRYFGYDSFRPGQSGIVSAILTGHDVLGVMPTGAGKSICYQIPAAILPGVAIVISPLISLMRDQVDALNDVGLPAAFINTTQTPDEQDLVFAQALSGQIKLLYVAPERLETERFRNFAVRVPISLVAVDEAHCVSQWGQDFRSSYLGIGEFIAGLPTRPTVAAFTATATERVRRDIVSILGLHTPSITVTGFDRPNLYFDVISMPRKDKASWVASYIASHPDESGIVYCATRKETEALAESLNSAVAELRAAGGADVSDIGTIAVAYHGGMSADAREKAQRDFVTDRVPVVVATNAFGMGIDKSNVRFVIHHNMPESIEAYYQEAGRAGRDGEPSRCTLLWNESDIVTRRRLLDSDYENERLTPEEQEAVRASKRRLLDAMVGYCRTTDCLHAYMTRYFGETAGAAAKTDGKCVGGCANCEHTFETIDVTDIARAISRCVHDVNQHVGSGKIVKVLRGSKAQDLSYLNPESLPSFGMLDEVPEARIRDVLSQMATDGFLTIAEGRLPIVGFGPRAAETVAPEFHYDIKKIKRADARARRTPDVSTPAVGSYVPDDGDEALFQKLRALRLDIARELGKPPYIVFSDKTLRDMVRVKPITDDQFLAVNGVGESKLKQYGERFLAAIREDSGDEA”, the protein production was “failed”.
With “MGKVILVTGVSRGIGKSIVDVLFSLDKDTVVYGVARSEAPLKKLKEKYGDRFFYVVGDITEDSVLKQLVNAAVKGHGKIDSLVANAGVLEPVQNVNEIDVNAWKKLYDINFFSIVSLVGIALPELKKTNGNVVFVSSDACNMYFSSWGAYGSSKAALNHFAMTLANEERQVKAIAVAPGIVDTDMQVNIRENVGPSSMSAEQLKMFRGLKENNQLLDSSVPATVYAKLALHGIPDGVNGQYLSYNDPALADFMP” the protein production was “not failed”.
For “MGKVSFGFLGLMLVVVVIGVVECRRFEKETLGGGGGGGLGGGFGGGKGFGGGIGAGGGFGGGAGGGAGGGLGGGAGGGGGIGGGAGGGAGGGLGGGAGGGLGGGHGGGIGGGAGGGAGGGLGGGHGGGIGGGAGGGSGGGLGGGIGGGAGGGAGGGGGLGGGHGGGIGGGAGGGAGGGLGGGHGGGIGGGAGGGSGGGLGGGIGGGAGGGAGGGGGAGGGGGLGGGHGGGFGGGAGGGLGGGAGGGTGGGFGGGAGGGAGGGAGGGFGGGAGGGAGGGFGGGAGGGAGGGAGGGFGGGAGGGHGGGVGGGFGGGSGGGFGGGAGGGAGGGAGGGFGGGGGAGGGFGGGF”, the protein production was “failed”.
For “MGKYTSEHHKDSRIVQLFQDGQYFYHKGLKAYRERNLSRASKLIQRAIFLEPENTGMLSQLAVIYTEMGFYQQSNELLDFILKNINEKMTECYYFKANNYAHLGLFQEAYKAAETYLKEDPDGEFSEENAELLDLLDMGEEDQGYSQFDQDDLILKQDRAKSLLENGQLQESIAMLEEIISDYPEFWSAYNNLALAYFYAGDVQKAKTTVFTVLEKSHGNLHALCNLLIFYHYERRDDKVEALSEQLSNIYPMLFEQRYKLGATLALVGRYDLGFKWLKSLYRMGFEGDETFYYWLACSAYYTGRVQFARSVWKKMQEEYPDDARMEPWKERKEKRPVQRPLEERLAAYYISGRKGEKAQLKAVLDSQMAKTPFEDQFVRLVLYGESGAAVDSKDALLAYRTAKAIEQADQSAMEQEAMCFWIFHVIQQIRAYGLQLKNAGGLAAAIYYIWKTEHQERLTKAETAKIFQISPGTLSKYERTLKEHL”, the protein production was “failed”.
For “MGLAASEALQGSEQEINSAFSNQITPVISGDYIVWQDERDGNWDIYMYDMSAGRTETSLFNGPKDEIEPAISGSRVVLADNRRGNYDIYMYDISTKKEVQVTSDKSEQKEPAISEDIIVWTDRRNQNTDIYMYDLTTKEETRITDDKADQSQPAVWGNIIVWKDTRNGNEDIYMYDISAGKESPVVMDSAAQTNPVIEGDYIVWEDRRAGNLDIYMYEISTGKEKPVCTDPSPQKTPAISDGRIVWADGRIKGTNIFIYDIATGQEKTVSTASEYESNPSIDGNRIVWQDKRKGAMDIFMFTEDASETESTAGEKTEAETGSKAPLGIYPVSAGVIAAYLMINSGKKGKRKTLEHHHHHH”, the protein production was “failed”.
With “MGLGIVLQGEKQVVIGDQILTYCAGQTMLTTIDVPVVSHTHNAKNHKPFLGLMLLLDLSMISKVVTQMEQLNIKEKVQPSFAVQPIDYVLIEAVQRLVTLLDEPILLSQLSPIIQQEIMIRLLAGVNGVYLRQLIRVGSVSERVAKVVNWLKQNFVETIRLDELADRFYMSSATLRQHFREVTGMSPLQYQKHLRLQQARHLLFNQNLEVGHTADLVGYESVSQFSREYARLFGATPLKDKQAAQLS” the protein production was “failed”.
For “MGLIDRYLAREILLPFAAALLFLTQILLATQILGQADVLFGSGVSLVDVGLVMLSLMPHLLGYVIPVAFLLGVVLGVGRLAEDREVVALGAAGLSPVRLVRVPLLLGLVVAALGAWLSLSVEPASIRAARLRLNDVVKRNVTNDVRGGTFYDQIPGYTIYTERARGGRWENVLIQDRSNPDAPMLALSRRGRLEPVGAGQDMRLVLEQGEVHREEVGTADYASAAFGKAELLVGLGTALSDRNVLAKSSREATVSDLRARAAAAREKGDVVEERRQEGYLHRKLSAPLVVVAFALLGVPLGAERRGGRAFGMGATFLLVVVHYLLLRGGEVLTQLGHLPAAFALQLPNLVLGAAGVALVLLMARRGPEAVR”, the protein production was “failed”.
In the case of “MGLRDAEVRRAWAARLASWLPAPPGDVLDLGCGTGSLSLLAAEQGHRVTGVDLSPAMVELARTKLAGRDAVFLTGDAAAPPVGEQRFDAVLVRHVLWTLPDPGRALRHWRQLLRPGGRLVLVEGVWGSVSPVGIPADRVTALLGPLTGQARVERLSDDPSLWGREVADERYAVVATYGLEHHHHHH”, the protein production is reported as “failed”.
For “MGMAAESQFHVLAVDDSLFDRKLIERLLQKSSCQVTTVDSGSKALEFLGLRQSTDSNDPNAFSKAPVNHQVVEVNLIITDYCMPGMTGYDLLKKVKESSAFRDIPVVIMSSENVPARISRCLEEGAEEFFLKPVRLADLNKLKPHMMKTKLKNQKLEEIETTSKVENGVPTAVADPEIKDSTNIEIEILPLQQDLLLVQQEEQTLSINNKRKSVEEGISTDRARPRFDGIATAV”, the protein production was “failed”.
In the case of “MGMTRNLLAAGLAAVLALPALAAELVMVEQHGCEWCARWNEEIAPIYPKTAEGAFAPLRRVDLRAIPADLETARRVVFTPTFLIVEDGRELARLEGYPGEDFFWPLLEQLLVDHAGFVPKKPGSS”, the protein production is reported as “failed”.
In the case of “MGNFMDDQCLLHASALTYSTLLSIVPFFALAFAVLKGLGVQNTLEPFILDQVAAGSHEIVDRIVTYINNTKVGSLGAVGLVTLVVSTVTLLGNIEETFNSIWGVRETRSLYRRFSDYLSVVVFGPILIFAAISVTTTLESQKAVQWLIGTAYLGDVLVAAFRLVPYVSIWLALVFLYMLIPNTKVRFRSALVGGVIAGTLWQAAQWGYIHFQVGVAKYNAIYGTLAVLPVFMIWLYASWSIVLFGVEVVYAHQHRRTFRHETHIPDLEPAARERLALALLLEVCRTFFRDGAPWNAERLAERLDVPERTARETLGMLVAKGWLAESCGEETLYLPARELEHMRVRELIASLRGHAMPLATGRFDPAVEWLAARMEGAVAAELGEVNFRTLAEGGGVD”, the protein production is reported as “failed”.
With “MGNGLMSKKKKKKNNKYKKKRPNVSRNCDWSKFCSDVLRKIFETLKSPIDSHRAFARISIQFGKHARTSLHVHGDSYTKVILPPSGNCLLMVDRRLKFYILNLLTRTTINLPSMSLIRGGQVFFKPQNEWSNDSGCFFGPSRNGNVSYDFDSVEWKNSVAVLWINETTGDYVVAWTFIQHYLFFYKSGYWSWCNLNHNGKSLVVFDMACENNKLYLYTANHHIRIFDFSGAYPMEKKTENPYWKYLFNAVEEPWEYVWKRKIAIQKSSGEVLIILSLKQVFYEAERLLFYIFKMNLESFKWERVYSLGDEMLVFGQGVTIPTALKDLGDGIKSDSIYFVDKDVWPDHQDHDRRVSNCGVFNIATSKIKWPTKKYRSVNETQWFVLGVAY” the protein production was “failed”.
For “MGNHAGKRELNAEKASTNSETNRGESEKKRNLGELSRTTSEDNEVFGEADANQNNGTSSQDTAVTDSKRTADPKNAWQDAHPADPGSRPHLIRLFSRDAPGREDNTFKDRPSESDELQTIQEDSAATSESLDVMASQKRPSQRHGSKYLATASTMDHARHGFLPRHRDTGILDSIGRFFGGDRGAPKRGSGKVSSEE”, the protein production was “failed”.
In the case of “MGNKRFRSDNNAGKPTSVEATRIWATKVIEDFRASGNEVYTFEHNLSNNERGVIHQMCRKMGIQSKSSGRGEQRRLSIFKSRHKNGNKNEANEKSNKEKLKCVSFPPGADVILQELFTHYPPCDGDTAATSFTKYSGNKGKQGQWKDDFFRKPQISSEEILEKVASLSSRLKKDKALKEITKLRSKLPITSFKDAITSAVESNQVL”, the protein production is reported as “failed”.
With “MGNLTTILYFAYAPALALLWYFYHQDRLEPEPKRVVIGTFILGGTLSVSVALIVESLLVPRWFPRIPALLPATFLYISLIAGIVEEPAKALAIKYAYNSGHLYGIMDGVVYGVAAGLGFAATENLLYGLGYGVHVTIQRALLTPIGHATWSAIVGVGYGLKAEGKVYTLAPYFTLAVLLHFLWDYYAFMSSISPVYYGIVLLIFTINVLIIRWLIILGRKEDMERFWWYRILGGRRW” the protein production was “failed”.
For “MGNNSESKGSASDSKGAETFTYKAENGNVKIPKHPKRVVVMADGYYGYFKTLGINVVGAPENVFKNPYYKGKTNGVENIGDGTSVEKVIDLNPDLIIVWTTQGADIKKLEKIAPTVAVKYDKLDNIEQLKEFAKMTGTEDKAEKWLAKWDKKVAAAKTKIKKAVGDKTISIMQTNGKDIYVFGKDFGRGGSIIYKDLGLQATKLTKEKAIDQGPGYTSISLEKLPDFAGDYIFAGPWQSGGDDGGVFESSIWKNLNAVKNGHVYKMDPIGFYFTDPISLEGQLEFITESLTKLEHHHHHH”, the protein production was “not failed”.
With “MGNPADQKDSKAKQKTEVFPVTIDDASNQDVTIKKEPKKIVSLMPSNTEITYALGLGDKVVGVTTNDTYPKEVKKVEKVGDMNVNVEKVISLKPDLVLAHESSMSASADAIKQLKDAGITVLTVNDAQSFSEVYKSIEMIGEAGGAEKKADQLVKSMKSDLKDIQEKAKTISKDEEKSVFIEVSPDPDIYTTGKDTFMNEMLNVIHAKNAAADQTGWVQMTDEAIVKLNPDAIVTTDGVKAKAVEKRDGWSEINAVKHHRVYDVDPDLVTRSGPRLIEGVEELAESIYPDTFKE” the protein production was “failed”.
In the case of “MGNRSTADADGLLAGRGPAAGASAGASAGLAGQGAAALVGGVLLIGAVLAGNSLVCVSVATERALQTPTNSFIVSLAAADLLLALLVLPLFVYSEVQGGAWLLSPRLCDALMAMDVMLCTASIFNLCAISVDRFVAVAVPLRYNRQGGSRRQLLLIGATWLLSAAVAAPVLCGLNDVRGRDPAVCRLEDRDYVVYSSVCSFFLPCPLMLLLYWATFRGLQRWEVARRAKLHGRAPRRPSGPGPPSPTPPAPRLPQDPCGPDCAPPAPGLPRGPCGPDCAPAAPGLPPDPCGPDCAPPAPGLPQDPCGPDCAPPAPGLPRGPCGPDCAPPAPGLPQDPCGPDCAPPAPGLPPDPCGSNCAPPDAVRAAALPPQTPPQTRRRRRAKITGRERKAMRVLPVVVGAFLLCWTPFFVVHITQALCPACSVPPRLVSAVTWLGYVNSALNPVIYTVFNAEFRNVFRKALRACC”, the protein production is reported as “failed”.
For “MGNSITVKRKRAKVMKIDGETFRIKTPVTAREVTADYPGYVLLDSQAVKHFGVRSKPLEPNQTLKPKKTYFLVELPKLPPETTAVDTENKLPYRRVMSGIHVGAKERLDMLMLSRRTVSDVTIGRSDGGDGFGPELGPGHTSVRLRLPRSQITKLMEENNNDASAIAEKILGIYMERSGELGGGRGGVDGRRELGSGEIKAREVSFAGEGGRELPVLWSRSGK”, the protein production was “failed”.
With “MGPERHLSGAPARMATVVLGGDTMGPERIFPNQTEELGHQGPSEGTGDWSSEEPEEEQEETGSGPAGYSYQPLNQDPEQEEVELAPVGDGDVVADIQDRIQALGLHLPDPPLESEDEDEEGATALNNHSSIPMDPEHVELVKRTMAGVSLPAPGVPAWAREISDAQWEDVVQKALQARQASPAWK” the protein production was “failed”.
For “MGPKRRQLTFREKSRIIQEVEENPDLRKGEIARRFNIPPSTLSTILKNKRAILASERKYGVASTCRKTNKLSPYDKLEGLLIAWFQQIRAAGLPVKGIILKEKALRIAEELGMDDFTASNGWLDRFRRRRS”, the protein production was “not failed”.
